What is called IC50 is the concentration needed to halve the response being measured.

For one molecule, IC50 results are on record in US20050003397A1.

This experiment addresses BAT monoclonal antibody. As to the kind of experiment: competition phage ELISA; BAT (6 µg/ml) pre-incubated with increasing synthetic Peptide A, binding to immobilized Peptide A phage read.

In turn, PRRIKPRKIMLQ [Peptide A (synthetic peptide of SEQ ID NO 1)] came in with an IC50 of 660 nM.
